Measured values as given in FireProtDB (doi:10.1021/bi9910169).

B1: Lysozyme C, P61626 (parent)
chain: MKALIVLGLVLLSVTVQGKVFERCELARTLKRLGMDGYRGISLANWMCLAKWESGYNTRATNYNAGDRSTDYGIFQINSRYWCNDGKTPGAVNACHLSCSALLQDNIADAVACAKRVVRDPQGIRAWVAWRNRCQNRDVRQYVQGCGV

Variants of: B1
Conditions: Homo sapiens; pH 2.51; Thermal; DSC; glycine-HCl 0.05 M; reversible: yes; structure 1LZ1; whole UniProt chain shown

Variant | Tm [°C] | unfolding enthalpy (calorimetric) [kcal/mol] | unfolding enthalpy (van 't Hoff) [kcal/mol]
MKALIVLGLVLLSVTVQGKVFERCELARTLKRLGMDGYRGISLANWMCLAKWESGYNTRAVNYNAGDRSTDYGIFQINSRYWCNDGKTPGAVNACHLSCSALLQDNIADAVACAKRVVRDPQGIRAWVAWRNRCQNRDVRQYVQGCGV [T61V] | 65 | 99.9 | 112

Same assay, conditions: Homo sapiens; pH 2.71; Thermal; DSC; glycine-HCl 0.05 M; reversible: yes; structure 1LZ1; whole UniProt chain shown

Variant | Tm [°C] | unfolding enthalpy (calorimetric) [kcal/mol] | unfolding enthalpy (van 't Hoff) [kcal/mol]
MKALIVLGLVLLSVTVQGKVFERCELARTLKRLGMDGYRGISLANWMCLAKWESGYNTRAVNYNAGDRSTDYGIFQINSRYWCNDGKTPGAVNACHLSCSALLQDNIADAVACAKRVVRDPQGIRAWVAWRNRCQNRDVRQYVQGCGV [T61V] | 68.4 | 105 | 114

Same assay, conditions: Homo sapiens; pH 3.02; Thermal; DSC; glycine-HCl 0.05 M; reversible: yes; structure 1LZ1; whole UniProt chain shown

Variant | Tm [°C] | unfolding enthalpy (calorimetric) [kcal/mol] | unfolding enthalpy (van 't Hoff) [kcal/mol]
MKALIVLGLVLLSVTVQGKVFERCELARTLKRLGMDGYRGISLANWMCLAKWESGYNTRAVNYNAGDRSTDYGIFQINSRYWCNDGKTPGAVNACHLSCSALLQDNIADAVACAKRVVRDPQGIRAWVAWRNRCQNRDVRQYVQGCGV [T61V] | 73 | 108 | 118

Same assay, conditions: Homo sapiens; pH 3.2; Thermal; DSC; glycine-HCl 0.05 M; reversible: yes; structure 1LZ1; whole UniProt chain shown

Variant | Tm [°C] | unfolding enthalpy (calorimetric) [kcal/mol] | unfolding enthalpy (van 't Hoff) [kcal/mol]
MKALIVLGLVLLSVTVQGKVFERCELARTLKRLGMDGYRGISLANWMCLAKWESGYNTRAVNYNAGDRSTDYGIFQINSRYWCNDGKTPGAVNACHLSCSALLQDNIADAVACAKRVVRDPQGIRAWVAWRNRCQNRDVRQYVQGCGV [T61V] | 75.4 | 113 | 121

Same assay, conditions: Homo sapiens; pH 2.5; Thermal; DSC; glycine-HCl 0.05 M; reversible: yes; structure 1LZ1; whole UniProt chain shown

Variant | Tm [°C] | unfolding enthalpy (calorimetric) [kcal/mol] | unfolding enthalpy (van 't Hoff) [kcal/mol]
MKALIVLGLVLLSVTVQGKVFERCELARTLKRLGMDGYRGISLANWMCLAKWESGYNVRATNYNAGDRSTDYGIFQINSRYWCNDGKTPGAVNACHLSCSALLQDNIADAVACAKRVVRDPQGIRAWVAWRNRCQNRDVRQYVQGCGV [T58V] | 57 | 96.6 | 104
MKALIVLGLVLLSVTVQGKVFERCELARTLKRLGMDGYRGISLANWMCLAKWESGYNARATNYNAGDRSTDYGIFQINSRYWCNDGKTPGAVNACHLSCSALLQDNIADAVACAKRVVRDPQGIRAWVAWRNRCQNRDVRQYVQGCGV [T58A] | 56.6 | 97.5 | 103
MKALIVLGLVLLSVTVQGKVFERCELARTLKRLGMDGYRGISLANWMCLAKWESGYNTRATNYNAGDRSTDYGIFQINSRYWCNDGKAPGAVNACHLSCSALLQDNIADAVACAKRVVRDPQGIRAWVAWRNRCQNRDVRQYVQGCGV [T88A] | 57.3 | 98.5 | 99.9
MKALIVLGLVLLSVTVQGKVFERCELARTLKRLGMDGYRGISLANWMCLAKWESGYNTRATNYNAGDRSTDYGIFQINSRYWCNDGKVPGAVNACHLSCSALLQDNIADAVACAKRVVRDPQGIRAWVAWRNRCQNRDVRQYVQGCGV [T88V] | 59.5 | 102 | 106

Same assay, conditions: Homo sapiens; pH 2.7; Thermal; DSC; glycine-HCl 0.05 M; reversible: yes; structure 1LZ1; whole UniProt chain shown

Variant | Tm [°C] | unfolding enthalpy (calorimetric) [kcal/mol] | unfolding enthalpy (van 't Hoff) [kcal/mol]
MKALIVLGLVLLSVTVQGKVFERCELARTLKRLGMDGYRGISLANWMCLAKWESGYNVRATNYNAGDRSTDYGIFQINSRYWCNDGKTPGAVNACHLSCSALLQDNIADAVACAKRVVRDPQGIRAWVAWRNRCQNRDVRQYVQGCGV [T58V] | 59.2 | 93 | 99.9
MKALIVLGLVLLSVTVQGKVFERCELARTLKRLGMDGYRGISLANWMCLAKWESGYNARATNYNAGDRSTDYGIFQINSRYWCNDGKTPGAVNACHLSCSALLQDNIADAVACAKRVVRDPQGIRAWVAWRNRCQNRDVRQYVQGCGV [T58A] | 59.4 | 99.9 | 102
MKALIVLGLVLLSVTVQGKVFERCELARTLKRLGMDGYRGISLANWMCLAKWESGYNTRATNYNAGDRSTDYGIFQINSRYWCNDGKAPGAVNACHLSCSALLQDNIADAVACAKRVVRDPQGIRAWVAWRNRCQNRDVRQYVQGCGV [T88A] | 60 | 101 | 104
MKALIVLGLVLLSVTVQGKVFERCELARTLKRLGMDGYRGISLANWMCLAKWESGYNTRATNYNAGDRSTDYGIFQINSRYWCNDGKVPGAVNACHLSCSALLQDNIADAVACAKRVVRDPQGIRAWVAWRNRCQNRDVRQYVQGCGV [T88V] | 62.6 | 107 | 111

Same assay, conditions: Homo sapiens; pH 2.85; Thermal; DSC; glycine-HCl 0.05 M; reversible: yes; structure 1LZ1; whole UniProt chain shown

Variant | Tm [°C] | unfolding enthalpy (calorimetric) [kcal/mol] | unfolding enthalpy (van 't Hoff) [kcal/mol]
MKALIVLGLVLLSVTVQGKVFERCELARTLKRLGMDGYRGISLANWMCLAKWESGYNVRATNYNAGDRSTDYGIFQINSRYWCNDGKTPGAVNACHLSCSALLQDNIADAVACAKRVVRDPQGIRAWVAWRNRCQNRDVRQYVQGCGV [T58V] | 63.2 | 110 | 113
MKALIVLGLVLLSVTVQGKVFERCELARTLKRLGMDGYRGISLANWMCLAKWESGYNARATNYNAGDRSTDYGIFQINSRYWCNDGKTPGAVNACHLSCSALLQDNIADAVACAKRVVRDPQGIRAWVAWRNRCQNRDVRQYVQGCGV [T58A] | 63.3 | 107 | 114
MKALIVLGLVLLSVTVQGKVFERCELARTLKRLGMDGYRGISLANWMCLAKWESGYNTRATNYNAGDRSTDYGIFQINSRYWCNDGKAPGAVNACHLSCSALLQDNIADAVACAKRVVRDPQGIRAWVAWRNRCQNRDVRQYVQGCGV [T88A] | 62.2 | 103 | 106
MKALIVLGLVLLSVTVQGKVFERCELARTLKRLGMDGYRGISLANWMCLAKWESGYNTRATNYNAGDRSTDYGIFQINSRYWCNDGKVPGAVNACHLSCSALLQDNIADAVACAKRVVRDPQGIRAWVAWRNRCQNRDVRQYVQGCGV [T88V] | 65.3 | 112 | 117

Same assay, conditions: Homo sapiens; pH 3; Thermal; DSC; glycine-HCl 0.05 M; reversible: yes; structure 1LZ1; whole UniProt chain shown

Variant | Tm [°C] | unfolding enthalpy (calorimetric) [kcal/mol] | unfolding enthalpy (van 't Hoff) [kcal/mol]
MKALIVLGLVLLSVTVQGKVFERCELARTLKRLGMDGYRGISLANWMCLAKWESGYNVRATNYNAGDRSTDYGIFQINSRYWCNDGKTPGAVNACHLSCSALLQDNIADAVACAKRVVRDPQGIRAWVAWRNRCQNRDVRQYVQGCGV [T58V] | 66.3 | 112 | 119
MKALIVLGLVLLSVTVQGKVFERCELARTLKRLGMDGYRGISLANWMCLAKWESGYNARATNYNAGDRSTDYGIFQINSRYWCNDGKTPGAVNACHLSCSALLQDNIADAVACAKRVVRDPQGIRAWVAWRNRCQNRDVRQYVQGCGV [T58A] | 66.5 | 114 | 117
MKALIVLGLVLLSVTVQGKVFERCELARTLKRLGMDGYRGISLANWMCLAKWESGYNTRATNYNAGDRSTDYGIFQINSRYWCNDGKAPGAVNACHLSCSALLQDNIADAVACAKRVVRDPQGIRAWVAWRNRCQNRDVRQYVQGCGV [T88A] | 64.7 | 107 | 110
MKALIVLGLVLLSVTVQGKVFERCELARTLKRLGMDGYRGISLANWMCLAKWESGYNTRATNYNAGDRSTDYGIFQINSRYWCNDGKVPGAVNACHLSCSALLQDNIADAVACAKRVVRDPQGIRAWVAWRNRCQNRDVRQYVQGCGV [T88V] | 67.6 | 115 | 121

Same assay, conditions: Homo sapiens; pH 3.1; Thermal; DSC; glycine-HCl 0.05 M; reversible: yes; structure 1LZ1; whole UniProt chain shown

Variant | Tm [°C] | unfolding enthalpy (calorimetric) [kcal/mol] | unfolding enthalpy (van 't Hoff) [kcal/mol]
MKALIVLGLVLLSVTVQGKVFERCELARTLKRLGMDGYRGISLANWMCLAKWESGYNVRATNYNAGDRSTDYGIFQINSRYWCNDGKTPGAVNACHLSCSALLQDNIADAVACAKRVVRDPQGIRAWVAWRNRCQNRDVRQYVQGCGV [T58V] | 68.7 | 115 | 123
MKALIVLGLVLLSVTVQGKVFERCELARTLKRLGMDGYRGISLANWMCLAKWESGYNARATNYNAGDRSTDYGIFQINSRYWCNDGKTPGAVNACHLSCSALLQDNIADAVACAKRVVRDPQGIRAWVAWRNRCQNRDVRQYVQGCGV [T58A] | 68.6 | 117 | 121
MKALIVLGLVLLSVTVQGKVFERCELARTLKRLGMDGYRGISLANWMCLAKWESGYNTRATNYNAGDRSTDYGIFQINSRYWCNDGKAPGAVNACHLSCSALLQDNIADAVACAKRVVRDPQGIRAWVAWRNRCQNRDVRQYVQGCGV [T88A] | 67.1 | 110 | 113
MKALIVLGLVLLSVTVQGKVFERCELARTLKRLGMDGYRGISLANWMCLAKWESGYNTRATNYNAGDRSTDYGIFQINSRYWCNDGKVPGAVNACHLSCSALLQDNIADAVACAKRVVRDPQGIRAWVAWRNRCQNRDVRQYVQGCGV [T88V] | 70.3 | 119 | 123
